What was measured:
Human TLR4/MD-2 complex = molecular target: T1, Human TLR4/MD-2 complex (human, UniProt O00206 24-631; Q9Y6Y9 19-160); assay: SPR; Biacore T200; TLR4/MD-2 amine-coupled on CM5 (~1200 RU); HMGB1 isoforms injected at 30 μL/min for 60 s, 25 °C, dissociation 1 min; HBS-EP pH 7.4 (10 mM hepes, 150 mM NaCl, 3 mM EDTA, 0.05% P20); 1:1 binding supposed; apparent KD; details: both partners purified
T1 construct: Toll-like receptor 4 (TLR4), human, chain of the bought TLR4/MD-2 complex; Myeloid Differentiation factor 2 (MD-2), human, chain of the bought TLR4/MD-2 complex; No catalogue number printed; also called TLR4/MD-2 receptor; source: bought: R&D Systems

human TLR4 = molecular target: T2, human TLR4 (human, UniProt O00206 24-631); assay: SPR; Biacore T200; rhTLR4 amine-coupled on CM5 (~800 RU); HMGB1 isoforms injected at 30 μL/min for 60 s, 25 °C, dissociation 1-2 min; HBS-EP pH 7.4; 1:1 binding supposed; apparent KD; details: both partners purified
T2 construct: Toll-like receptor 4 (TLR4), recombinant human (rhTLR4); No catalogue number printed; also called rhTLR4; Toll-like receptor 4; source: bought: R&D Systems
T2 sequence (O00206 24-631): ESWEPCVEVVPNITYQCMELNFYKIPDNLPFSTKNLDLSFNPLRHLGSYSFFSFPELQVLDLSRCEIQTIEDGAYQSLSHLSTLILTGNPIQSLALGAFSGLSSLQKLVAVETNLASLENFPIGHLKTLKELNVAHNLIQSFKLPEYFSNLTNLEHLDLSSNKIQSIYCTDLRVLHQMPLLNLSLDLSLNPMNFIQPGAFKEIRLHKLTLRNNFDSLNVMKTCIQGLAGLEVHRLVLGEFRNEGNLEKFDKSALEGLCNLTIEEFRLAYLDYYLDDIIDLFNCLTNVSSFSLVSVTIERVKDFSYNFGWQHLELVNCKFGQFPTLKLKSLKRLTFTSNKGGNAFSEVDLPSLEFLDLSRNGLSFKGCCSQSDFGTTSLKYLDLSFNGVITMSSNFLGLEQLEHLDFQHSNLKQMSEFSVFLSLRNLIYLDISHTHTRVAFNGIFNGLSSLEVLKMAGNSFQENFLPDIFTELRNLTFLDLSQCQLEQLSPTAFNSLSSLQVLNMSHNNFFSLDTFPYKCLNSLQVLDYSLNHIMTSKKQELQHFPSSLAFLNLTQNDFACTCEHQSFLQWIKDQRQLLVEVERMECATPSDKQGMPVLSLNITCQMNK

T1 sequence (O00206 24-631, chain 1 of 2): as the sequence (O00206 24-631) above
T1 sequence (Q9Y6Y9 19-160, chain 2 of 2): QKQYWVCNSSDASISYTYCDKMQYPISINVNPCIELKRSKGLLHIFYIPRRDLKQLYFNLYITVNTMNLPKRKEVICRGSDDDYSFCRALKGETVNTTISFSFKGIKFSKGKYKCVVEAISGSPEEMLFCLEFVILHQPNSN

Kd (Human TLR4/MD-2 complex)	fold faster association rate than the other isoforms (Human TLR4/MD-2 complex)	kon (Human TLR4/MD-2 complex)	Kd (human TLR4)	Binder
0.42 ± 0.01 µM	10 fold	286000 M⁻¹ s⁻¹	–	disulfide HMGB1 (High Mobility Group Box 1) (natural protein, UniProt P63159 1-215, looked up, disulfide bond between C23 and C45, High Mobility Group Box 1 (HMGB1), single 215-amino acid polypeptide; neither is stated here; also called disulfide HMGB1 isoform; intact HMGB1; source: E. coli, purified to homogeneity) MGKGDPKKPRGKMSSYAFFVQTCREEHKKKHPDASVNFSEFSKKCSERWKTMSAKEKGKFEDMAKADKARYEREMKTYIPPKGETKKKFKDPNAPKRPPSAFFLFCSEYRPKIKGEHPGLSIGDVAKKLGEMWNNTAADDKQPYEKKAAKLKEKYEKDIAAYRAKGKPDAAKKGVVKAEKSKKKKEEEDDEEDEEDEEEEEEEEDEDEEEDDDDE
3.93 ± 0.01 µM	–	–	–	DTT reduced HMGB1 (natural protein, UniProt P63159 1-215, looked up, cysteines reduced with DTT (no C23-C45 disulfide), High Mobility Group Box 1 (HMGB1), 215 amino acids, reduced form; Prepared as in Yang et al. 2012 (cited); Same protein as m1 in another redox state; source: E. coli, purified to homogeneity, then reduced with DTT) MGKGDPKKPRGKMSSYAFFVQTCREEHKKKHPDASVNFSEFSKKCSERWKTMSAKEKGKFEDMAKADKARYEREMKTYIPPKGETKKKFKDPNAPKRPPSAFFLFCSEYRPKIKGEHPGLSIGDVAKKLGEMWNNTAADDKQPYEKKAAKLKEKYEKDIAAYRAKGKPDAAKKGVVKAEKSKKKKEEEDDEEDEEDEEEEEEEEDEDEEEDDDDE
3.02 ± 0.02 µM	–	–	4.2 ± 0.09 µM	non-oxidizable HMGB1 3S mutant (natural protein, UniProt P63159 1-215, looked up, HMGB1 in which all three cysteines (C23, C45, C106) are replaced by serines; Commercial protein; also called 3S mutant HMGB1; source: provided by HMGBiotech (Milan, Italy)) MGKGDPKKPRGKMSSYAFFVQTSREEHKKKHPDASVNFSEFSKKSSERWKTMSAKEKGKFEDMAKADKARYEREMKTYIPPKGETKKKFKDPNAPKRPPSAFFLFSSEYRPKIKGEHPGLSIGDVAKKLGEMWNNTAADDKQPYEKKAAKLKEKYEKDIAAYRAKGKPDAAKKGVVKAEKSKKKKEEEDDEEDEEDEEEEEEEEDEDEEEDDDDE

From PMC6085627, “Exploring the biological functional mechanism of the HMGB1/TLR4/MD-2 complex by surface plasmon resonance” (Molecular Medicine, 2018)
